The text below walks through data of paper PMC9181416.

The stoichiometry N is a count of units in the complex or per binding partner.

The target in the assay is PIN1 HL-1, fragment of the PIN1 hydrophilic loop, amino acids 289-451 (Arabidopsis thaliana) (UniProt Q9C6B8). Put plainly: AUC; sedimentation velocity, 42,000 rpm, 20 °C, 50 mM NaP pH 7.4, 150 mM NaCl, absorbance at 280 nm, c(s) distribution (SEDFIT); PIN1 HL-1 at 1.26 mg/mL; monomer to dimer.

“PIN1 HL-1, fragment of the PIN1 hydrophilic loop, amino acids 289-451 (from UniProt Q9C6B8 289-451) (domain or fragment)” had a stoichiometry N of 2.
